The DeepSol protein solubility set

assay: soluble on expression in E. coli; label from the status in PepcDB or PDB records

Row | Sequence | soluble on expression in E. coli
1 | MAHHHHHHMLPFSYRVLMRGVSAVSGALSVALQHRALAGTTRSFSSSRPVWLAPAAPTKQAPPAMGGDTDAEETHPDFQPRMVSSDLAQDEIAMIKKDIDDTIRDEDVVVFIKGVPEAPMCAFSKRMIDVMEALGVEYTSFDVLAHPVVRSYVKEVSEWPTIPQLFVKGEFAGGVDIILKMAESGDLQMLLDQKSIKHRDTKP | soluble
2 | MAASRDIFAPDFRRRPYWWEGYEPPECGEDTLPASADVAIVGGGYTGVCCALALREAGIEAVVLEAGRPGEGASTRSGGQVSGGVNVQKKALAAVGESAGQRAERLAARLRDAAASMAYVESLIERYAIECGWRRTGRLTTMWVPAHYQSWQARLDQLNACTGSQARMIPREELAAEIGSSVYHGAALIEHAGHLQPAQLYGGMLRAARDAGARVLGRTPVERIERRAGGYDVHTARGTVRAGQVVIATIGYTGANLGGLKRRIVPVCTHMIATEALPPDLAASLLPTNRAVSESRRVVNHYRLSPDGRRLLFGGRARFVPTDEATTARLLYRAMLKRFPQLAGTRITHSWGGNVAMTLDSMPHIGGADGLHYALGCNGSGVAMMSYLGHCVGRKIATQSGEPINAFDMGEIPGHPFYFGNPWFLFAIGSWYQARDAYDHWRARLEHHHHHH | soluble
3 | MGSDKIHHHHHHMVNMNIIEIRSDKIYKKIMDAPINKKEDIYRYELMKPFEFKWKCMNVPIVARQKGGYDVIIASEMLGVLSPKDIDEKQKKNINVLSADKIWATCKETIENSINAFIKEGYDLNIKDYKYSILLANPNSPYTILSDGYWGDGGIPGYIFLSLVPNEYTINRLPVLIAHECNHNIRFQFIEWNNNITLEEMMINEGLAENFATWMFGEEMLGPWVSRTDIETLNTYIKPIIKSALKETGFQNITSYLYGDDIAKMQGYFPVGLPYCAGYACGYYMIKYYLEKTNKSIIEATLLPYSEIIEAVKEFWE | not soluble
4 | MSLLGGPGIELFRRLVEEYEREHDVPMADIAAALAVQCRGGEAFLMAPDPPLSRRNRDQRRDRPQRPKRRPDLTTYRVAVGKRHKIGPGAIVGAIANEGGLHRSDFGQIRIGPDFSLVELPAKLPRATLKKLAQTRISGVLIDLRPYRPPDAARRHNGGKPRRKHVGEGHHHHHH | soluble
5 | NLMKRCTRGFRKLGKCTTLEEEKCKTLYPRGQCTCSDSKMNTHSCDCKSC | soluble
6 | GLFQFLRIVMRPSDQLLGLDEKGTIRTIDETGKASPIPGMVIYRFNSPLTYFNAPYFKRRLLEHAEQNKDVSCVVVDAVSSFTHLDLSVMATLADIHEVLKKRGIRLVLAGRKRRLRQWCELTGISTSEGGILLRADMYLAIKLSGSYLSAVGEGIVPTVQKEPDLEQPPKPIPEVA | not soluble
7 | SLSFSSKVKSEVCRYDDYSKGEAIAVLSAVMKASGTLALEGNRKISFKIITENPAIARLIFKLLKKYFDIHTEIMMKKSNSLKKNNVYVVSITEDMGVRELLKTVGVMKNEDGIVTLSYDIPEFVVKDDESRKMYIRGAFLGGGSVSNPEKMYHLEFVTHNEDYASNLRDLINTYGLNSKVIQRKNSYVVYIKEGEQVVDLLNIIGAHSSLLELENIRIIKEMRNNINRLVNCETANLSKTVNASVRQIESIKLIEKQIGLSRLPENLREVAKLRLNYPDESLKELGKMLEPPVGKSGVNHRLRKIEKIAEELRKEGR | soluble
8 | MNTLGRFLRLTTFGESHGDVIGGVLDGMPSGIKIDYALLENEMKRRQGGRNVFITPRKEDDKVEITSGVFEDFSTGTPIGFLIHNQRARSKDYDNIKNLFRPSHADFTYFHKYGIRDFRGGGRSSARESAIRVAAGAFAKMLLREIGIVCESGIIEIGGIKAKNYDFNHALKSEIFALDEEQEEAQKTAIQNAIKNHDSIGGVALIRARSIKTNQKLPIGLGQGLYAKLDAKIAEAMMGLNGVKAVEIGKGVESSLLKGSEYNDLMDQKGFLSNRSGGVLGGMSNGEEIIVRVHFKPTPSIFQPQRTIDINGNECECLLKGRHDPCIAIRGSVVCESLLALVLADMVLLNLTSKIEYLKTIYNEN | soluble
9 | VVNKKIAYLGDEKPITIWTSLDNVTVIQLEKDETISYITTGFNKGWSIVPNSNHIFIQPKSVKSNLMFEKEAVNFALMTRDYQEFLKTKKLIVDAPDPKELEEQKKALEKEKEAKEQAQKAQKDKREKRKEERAKNRANLENLTNAMSNPQNLSNNKNLSEFIKQQRENELDQMERLEDMQEQAQANALKQIEELNKKQAEETIKQRAKDKINIKTDKPQKSPEDNSIELSPSDSAWRTNLVVRTNKALYQFILRIAQKDNFASAYLTVKLEYPQRHEVSSVIEEELKKREEAKRQKELIKQENLNTTAYINRVMMASNEQIINKEKIREEKQKIILDQAKALETQYVHNALKRNPVPRNYNYYQAPEKRSKHIMPSEIFDDGTFTYFGFKNITLQPAIFVVQPDGKLSMTDAAIDPNMTNSGLRWYRVNEIAEKFKLIKDKALVTVINKG | not soluble
10 | MNIDTKYHGTVAVNEQDIVHFPHGLPGFADEKRFVLLPLADTPFVILQSVETPALGFVLIEPFSYFPTYEFELDEATVEQLDIESERDVAVYVILTVADPFHETTANLQAPVVINARKRFGKQVILANTPYKTKHRLFPEKVAT | not soluble
11 | MAHHHHHHMFLTFVRHTPPKTPRNVFFPWQNFSIHKSGSFLEKNRLALRVPINLTKFEIREYLRKIYNAKVIKVNTLIKVPERRRNLTDFRFNYYRNGPRYKKAIITLEHEVPDSVKMIQSCKNIGRNPYITKKNVIYGVRSDVKITPTRSQLWQMGECRYSWRLPLTNLLADYKMNLNPDLRIDENLVQLAPDMTKPFMHSGISSQTFKPSSVPEQTFPKVIFFFFQKGDVLA | soluble
12 | MRLDKYLSKSLHISRKEAKELIREGRVKVSGKVVKQAEYRVKEGEEVEVEGKSVKPKKNVYLMLYKPKGYLSTTEEDKKYPSFLELIREHFPSRKLFSAGRLDVDAEGLLLITDDGELAHRLTHPKWKVEKEYIVRLDRDIGDEELKKLYEVKLEEKPVQLVKAEKLSGDTVKAILTEGRHHVVKRLFKAVGHNVVYLKRTRVGNLRLDENMEPGEWRELTEEEVKELKRLVKYNPQN | soluble
13 | MSLTVSPLSGSLTPIGSEVKRGAELAVQEQAAAFKALGYDLVLTPYDDQASATLAPQIARTIVADKNVLGVVGALNSSVSNVIAQAFGPAKLAMISPASTGDQLTQNGWNHFSRVVAPDSAQGVAAADYIAEELKAGSVVVISDNTAYGNGLTRVLMANLKKRKVPVAAYMGASTPAQIAEAVKRVKASSADVVYFGGTDDTGSQLVKALRAAGVTATFMGGDGLDSPSFLQRAGIAGAGVVYSTVFGPVSAFSNALDFSDRYRAAYKTKPSGVAVYAYDATNTLLSAIKAAAGNSRTLPTRAEVSAAVRKVNLPACFSADKSRCATITGAIAFSDSGERLRSRVMIMRFDDVLQPQVAKVQTVNAESLKEGHHHHHH | soluble
14 | AMTGSDGTKILTITRPDTHGTKTSLTARLYSDTTKKATLDTIFTVVTSPDSDKAKMWGHMPETVTAADGAVFKRPLLLKELSSTSGRTAIAEDNEDWAQFTQAQAISTSSNGCGSEYVPSQAGLESLYEANRGNAMKTVQGWPVASSYLSSTTGSSSLEQRDFKAVNLSSGTSSIIPSATKELLTCQ | not soluble
15 | MGSDKIHHHHHHMNPVLKSSKLVIFDLDGTLYEGTDHFDYYANHLKQNVPQSQQLDFWRDYTAMKDGHHPVQIGKGYDVKRDYILTIDPMTISVQSVQTWDGSYVPAEEWETLYSDPVSFDFETIIAVGDGWWYPFVTAKHYGVEDCYASYVATKEYMVTDEFELTPLPGLREGLIELKATKEIVLVTNSDREDVQRLLHELHLHDVFNHIITSAKKPTRTTDIFKEVVHQYEVDMSQVVSVGDNFMNEIAQALTLGMQGIYIHPQRASEVAHDHLTVIRSVVELFKN | not soluble
16 | SNAMKAPELQIQQWFNSATDLTLADLRGKVIVIEAFQMLCPGCVMHGIPLAQKVRAAFPEDKVAVLGLHTVFEHHEAMTPISLKAFLHEYRIKFPVGVDQPGDGAMPRTMAAYQMRGTPSLLLIDKAGDLRAHHFGDVSELLLGAEIATLLGEAAPSV | soluble
17 | MDVSYYDGPKDEVAEAMLKSAVTAMRLGQYEDGKGRLEEIMEFGTSNFQLLGTIYMYYGRVCRHLNHDAKALEFFEHELNMFKLIFNYPEACDSTRRIVEQALKMGKFPKARRFAEDLIDYTSNKKNGEKYIGQARILFASVCLEGCERDVESNQDEKKKLLSICAEQIAAVKLFNENNTEGAVSETKIMLLEAKCLSLDEKYEESRRKYQECIDFAIKTDQFEAVHIAYYDKALYAETDLLFFIIRDLRSALFYATKFGKERDVVKYKSKLSEEMLRNGEFHEAYLYGLEALVSIRKLGLNEYIGDVLLTIAKCLIALGKRRQAAYFIILGSVLTINQNSFKLFYEQIDVAMNQERSETATDQDVCLAIDSSPDPTSSNDMINKFVVELEHATNVETWEMIVNGIIDDQKKPVAIEKKENEEPVDMMDLIFSMSSRMDDQRTELPAARFIPPRPVSSASKKTTKSHRILPGLRANWTKVQSMKFDGHTMNRILKRSKKSKSSLDSTNSMQGDDTRSDDVTMTSK | not soluble
18 | MSLFTGPIVAVGEYVEGLGEGRRYVSIPYYRREIERVIGARPFPGTFNVRVEREERESLRELASSYGYRIEPHGEYGGAWLYPCLVNGRPAWLVFPDLTEHRDQVELISETELRRELNVIHGDMVKIEVWGPSTWKLARRLTCGPSGGREGHHHHHH | soluble
19 | MMFPAKIISLRGGATEAIVSADLDRKTELAQETATRWFERRLSLRSPLDPPLPERPGRPEKPELVPPTAVERRSLHSVKGRIALLHAIAHIELNAVDLALDIVARYASEPVPHSFFDGWMQVAFEEAKHFRLVRDRLVSLGADYGDLPAHDGLWQAAHSTRNDLTARLAVVPLILEARGLDVTPSLQAKMRETGDLESAAVLDVIYNDEKGHVAIGAKWFRFLCAREKKDPAATFRQLVRSNFRGPLKPPFNDLARAEAGLTPSFYRSLTSVSHSLEHHHHHH | not soluble
20 | VARCQVPDCEADISELKGYHKRHRVCLRCATASFVVLDGENKRYCQQCGKFHLLPDFDEGKRSCRRKLERHNNRRKRKPVDKGGVA | soluble
21 | MAGDPMIEVIGVRFKKAGKIYYFGPNGIEIKKGQNVIVETARGIEFGECVIGIRKISEEDIVAPLKSVLRLATEEDINKHKENKAKETEAFEICLKKIEEHNLVMKLIDVEYTFDNNKVIFYFTAEGRVDFRELVKDLATIFKTRIELRQIGVRDEAKMIGGLGPCGRPLCCSTFLGDFASVSIKMAKEQSLSLNPTKISGICGRLMCCLNYEQSTYEEIRKELPRVGSVVETELGKGEVVGNNVLKELVRVKLPRKNEEIIQDFKMYDVKLISGSYEGEVEDTNIRLEITDEADKALIKNLIKDNLEHHHHHH | soluble
22 | HMDIRTITSSDYEMVTSVLNEWWGGRQLKEKLPRLFFEHFQDTSFITSEHNSMTGFLIGFQSQSDPETAYIHFSGVHPDFRKMQIGKQLYDVFIETVKQRGCTRVKCVTSPVNKVSIAYHTKLGFDIEKGTKTVNGISVFANYDGPGQDRVLFVKNI | soluble
23 | MAHHHHHHMPPPPPAPPPPPPPPPPPKATEGNSSSTVGGAASALFAEIRQGGDNITSRLRHVTDDQKAYKQNIQHGAVDFSDLDAKKAEAEAKRQQKQKQPETTAAEEPVTRLEGDKRWVVKHHKGTPSEPCKVTLEDVNMRHAVHIHGCDNTFVEVKGKVNTVSVVSCNKAQVILESVVSALEVLKSDSVDVTVRRFVPTAMVEKSTSVNLFLMDVEEAPNTEIVTACSSAVNVNFPTVEDPTDILERPLPEQFVSRIVRDNRGKYKIETKPNEVA | soluble
